Data set [1] deals with HeLa Kyoto. Description: solubility in G1/S (NP-40 vs SDS abundance) (log2 ratio); higher = more soluble. The following applies: cell cycle stage: G1/S.
In data set [2] the test system is HeLa Kyoto. The data set is described as follows: solubility change mitosis vs G1/S (difference of NP-40 vs SDS log2 ratios) (log2 ratio difference); higher = more soluble in mitosis.
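For solubility change mitosis vs G1/S (difference of NP-40 vs SDS log2 ratios) in this document: synchronized HeLa Kyoto cells (double thymidine block for G1/S, nocodazole release for mitosis), protein amounts in NP-40 versus SDS lysates quantified by mass spectrometry, three biological replicates.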
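For solubility in G1/S (NP-40 vs SDS abundance) in this document: HeLa Kyoto cells arrested at G1/S by double thymidine block, proteins quantified by TMT10plex mass spectrometry in mild NP-40 versus SDS extracts, three biological replicates.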

Sequence of NEK6 (chain, as listed by the source): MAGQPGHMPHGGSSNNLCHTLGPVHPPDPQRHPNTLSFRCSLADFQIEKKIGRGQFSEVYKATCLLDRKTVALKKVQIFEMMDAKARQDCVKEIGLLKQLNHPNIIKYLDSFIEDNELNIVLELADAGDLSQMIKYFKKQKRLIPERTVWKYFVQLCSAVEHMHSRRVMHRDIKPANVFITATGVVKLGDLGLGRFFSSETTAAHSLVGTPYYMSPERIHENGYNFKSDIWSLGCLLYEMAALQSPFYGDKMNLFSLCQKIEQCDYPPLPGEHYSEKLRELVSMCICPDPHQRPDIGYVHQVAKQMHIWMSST

In the case of “MELPAVGEHVFAVESIEKKRIRKGRVEYLVKWRGWSPKYNTWEPEENILDPRLLIAFQNRERQEQLMGYRKRGPKPKPLVVQVPTFARRSNVLTGLQDSSTDNRAKLDLGAQGKGQGHQYELNSKKHHQYQPHSKERAGKPPPPGKSGKYYYQLNSKKHHPYQPDPKMYDLQYQGGHKEAPSPTCPDLGAKSHPPDKWAQGAGAKGYLGAVKPLAGAAGAPGKGSEKGPPNGMMPAPKEAVTGNGIGGKMKIVKNKNKNGRIVIVMSKYMENGMQAVKIKSGEVAEGEARSPSHKKRAADERHPPADRTFKKAAGAEEKKVEAPPKRREEEVSGVSDPQPQDAGSRKLSPTKEAFGEQPLQLTTKPDLLAWDPARNTHPPSHHPHPHPHHHHHHHHHHHHAVGLNLSHVRKRCLSETHGEREPCKKRLTARSISTPTCLGGSPAAERPADLPPAAALPQPEVILLDSDLDEPIDLRCVKTRSEAGEPPSSLQVKPETPASAAVAVAAAAAPTTTAEKPPAEAQDEPAESLSEFKPFFGNIIITDVTANCLTVTFKEYVTV [CBX4]”, the “solubility in G1/S (log2)” value in the data set with HeLa Kyoto [1] is -0.386. For the same substance, the “solubility change mitosis (log2)” value with HeLa Kyoto [2] is 0.583.

In the case of NEK6, in the data set on HeLa Kyoto [1], the “solubility in G1/S (log2)” value came out at 0.1. The “solubility change mitosis (log2)” value with HeLa Kyoto [2] was -0.09.

With “MLPPMALPSVSWMLLSCLMLLSQVQGEEPQRELPSARIRCPKGSKAYGSHCYALFLSPKSWTDADLACQKRPSGNLVSVLSGAEGSFVSSLVKSIGNSYSYVWIGLHDPTQGTEPNGEGWEWSSSDVMNYFAWERNPSTISSPGHCASLSRSTAFLRWKDYNCNVRLPYVCKFTD [PAP1]”, in the data set with HeLa Kyoto [1], the “solubility in G1/S (log2)” value came to 0.102. In addition, the “solubility change mitosis (log2)” value with HeLa Kyoto [2] is -0.21.

With “MSFLIDSSIMITSQILFFGFGWLFFMRQLFKDYEIRQYVVQVIFSVTFAFSCTMFELIIFEILGVLNSSSRYFHWKMNLCVILLILVFMVPFYIGYFIVSNIRLLHKQRLLFSCLLWLTFMYFFWKLGDPFPILSPKHGILSIEQLISRVGVIGVTLMALLSGFGAVNCPYTYMSYFLRNVTDTDILALERRLLQTMDMIISKKKRMAMARRTMFQKGEVHNKPSGFWGMIKSVTTSASGSENLTLIQQEVDALEELSRQLFLETADLYATKERIEYSKTFKGKYFNFLGYFFSIYCVWKIFMATINIVFDRVGKTDPVTRGIEITVNYLGIQFDVKFWSQHISFILVGIIIVTSIRGLLITLTKFFYAISSSKSSNVIVLLLAQIMGMYFVSSVLLIRMSMPLEYRTIITEVLGELQFNFYHRWFDVIFLVSALSSILFLYLAHKQAPEKQMAP [GPR89B]”, the “solubility in G1/S (log2)” value with HeLa Kyoto [1] was -0.0559. The “solubility change mitosis (log2)” value in the data set on HeLa Kyoto [2] was -0.167.

As for “MAARGRRAWLSVLLGLVLGFVLASRLVLPRASELKRAGPRRRASPEGCRSGQAAASQAGGARGDARGAQLWPPGSDPDGGPRDRNFLFVGVMTAQKYLQTRAVAAYRTWSKTIPGKVQFFSSEGSDTSVPIPVVPLRGVDDSYPPQKKSFMMLKYMHDHYLDKYEWFMRADDDVYIKGDRLENFLRSLNSSEPLFLGQTGLGTTEEMGKLALEPGENFCMGGPGVIMSREVLRRMVPHIGKCLREMYTTHEDVEVGRCVRRFAGVQCVWSYEMQQLFYENYEQNKKGYIRDLHNSKIHQAITLHPNKNPPYQYRLHSYMLSRKISELRHRTIQLHREIVLMSKYSNTEIHKEDLQLGIPPSFMRFQPRQREEILEWEFLTGKYLYSAVDGQPPRRGMDSAQREALDDIVMQVMEMINANAKTRGRIIDFKEIQYGYRRVNPMYGAEYILDLLLLYKKHKGKKMTVPVRRHAYLQQTFSKIQFVEHEELDAQELAKRINQESGSLSFLSNSLKKLVPFQLPGSKSEHKEPKDKKINILIPLSGRFDMFVRFMGNFEKTCLIPNQNVKLVVLLFNSDSNPDKAKQVELMRDYRIKYPKADMQILPVSGEFSRALALEVGSSQFNNESLLFFCDVDLVFTTEFLQRCRANTVLGQQIYFPIIFSQYDPKIVYSGKVPSDNHFAFTQKTGFWRNYGFGITCIYKGDLVRVGGFDVSIQGWGLEDVDLFNKVVQAGLKTFRSQEVGVVHVHHPVFCDPNLDPKQYKMCLGSKASTYGSTQQLAEMWLEKNDPSYSKSSNNNGSVRTA [CHSY1]”, the “solubility in G1/S (log2)” value in the data set on HeLa Kyoto [1] was -0.388. The “solubility change mitosis (log2)” value in the data set with HeLa Kyoto [2] worked out at 0.159.

Turning to “MTTKNLETKVTVTSSPIRGAGDGMETEEPPKSVEVTSGVQSRKHHSLQSPWKKAVPSESPGVLQLGKMLTEKAMEVKAVRILVPKAAITHDIPNKNTKVKSLGHHKGEFLGQSEGVIEPNKELSEVKNVLEKLKNSERRLLQDKEGLSNQLRVQTEVNRELKKLLVASVGDDLQYHFERLAREKNQLILENEALGRNTAQLSEQLERMSIQCDVWRSKFLASRVMADELTNSRAALQRQNRDAHGAIQDLLSEREQFRQEMIATQKLLEELLVSLQWGREQTYSPSVQPHSTAELALTNHKLAKAVNSHLLGNVGINNQKKIPSTVEFCSTPAEKMAETVLRILDPVTCKESSPDNPFFESSPTTLLATKKNIGRFHPYTRYENITFNCCNHCRGELIAL [BLZF1]”, in the data set on HeLa Kyoto [1], the “solubility in G1/S (log2)” value stood at 0.15. Also, in the data set on HeLa Kyoto [2], the “solubility change mitosis (log2)” value was determined as 0.0573.

As for “MVLLHVKRGDESQFLLQAPGSTELEELTVQVARVYNGRLKVQRLCSEMEELAEHGIFLPPNMQGLTDDQIEELKLKDEWGEKCVPSGGAVFKKDDIGRRNGQAPNEKMKQVLKKTIEEAKAIISKKQVEAGVCVTMEMVKDALDQLRGAVMIVYPMGLPPYDPIRMEFENKEDLSGTQAGLNVIKEAEAQLWWAAKELRRTKKLSDYVGKNEKTKIIAKIQQRGQGAPAREPIISSEEQKQLMLYYHRRQEELKRLEENDDDAYLNSPWADNTALKRHFHGVKDIKWRPR [C21ORF59]”, in the data set on HeLa Kyoto [1], the “solubility in G1/S (log2)” value worked out at 0.335. Moreover, in the data set with HeLa Kyoto [2], the “solubility change mitosis (log2)” value was 0.0264.

In the case of “MVMAALSLVAACWGRAAADESVQLPAAPGSSVRARETMVSVTMATSEWIQFFKEAGIPPGPAVNYAVMFVDNRIQKSMLLDLNKEIMNELGVTVVGDIIAILKHAKVVHRQDMCKAATESVPCSPSPLAGEIRRGTSAASRMITNSLNHDSPPSTPPRRPDTSTSKISVTVSNKMAAKSAKATAALARREEESLAVPAKRRRVTAEMEGKYVINMPKGTTPRTRKILEQQQAAKGLHRTSVFDRLGAETKADTTTGSKPTGVFSRLGATPETDEDLAWDSDNDSSSSVLQYAGVLKKLGRGPAKASPQPALTVKAKATSSATTAAAPTLRRLALSSRSGLERKPESLSKVSIIKRLGAAALVPEAQDSQVTSTKSKSSAEVKVTIKRTLVGPRGSSSSEGLGAQMDHAGTVSVFKRLGRRTF [C19ORF47]”, in the data set on HeLa Kyoto [1], the “solubility in G1/S (log2)” value was -0.824. Further, the “solubility change mitosis (log2)” value with HeLa Kyoto [2] was 1.04.

As to “MFRIEGLAPKLDPEEMKRKMREDVISSIRNFLIYVALLRVTPFILKKLDSI [TOMM5]”, in the data set with HeLa Kyoto [1], the “solubility in G1/S (log2)” value was -0.518. For the same substance, the “solubility change mitosis (log2)” value in the data set on HeLa Kyoto [2] was -0.172.

Turning to “MAEPSQAPTPAPAAQPRPLQSPAPAPTPTPAPSPASAPIPTPTPAPAPAPAAAPAGSTGTGGPGVGSGGAGSGGDPARPGLSQQQRASQRKAQVRGLPRAKKLEKLGVFSACKANETCKCNGWKNPKPPTAPRMDLQQPAANLSELCRSCEHPLADHVSHLENVSEDEINRLLGMVVDVENLFMSVHKEEDTDTKQVYFYLFKLLRKCILQMTRPVVEGSLGSPPFEKPNIEQGVLNFVQYKFSHLAPRERQTMFELSKMFLLCLNYWKLETPAQFRQRSQAEDVATYKVNYTRWLCYCHVPQSCDSLPRYETTHVFGRSLLRSIFTVTRRQLLEKFRVEKDKLVPEKRTLILTHFPKFLSMLEEEIYGANSPIWESGFTMPPSEGTQLVPRPASVSAAVVPSTPIFSPSMGGGSNSSLSLDSAGAEPMPGEKRTLPENLTLEDAKRLRVMGDIPMELVNEVMLTITDPAAMLGPETSLLSANAARDETARLEERRGIIEFHVIGNSLTPKANRRVLLWLVGLQNVFSHQLPRMPKEYIARLVFDPKHKTLALIKDGRVIGGICFRMFPTQGFTEIVFCAVTSNEQVKGYGTHLMNHLKEYHIKHNILYFLTYADEYAIGYFKKQGFSKDIKVPKSRYLGYIKDYEGATLMECELNPRIPYTELSHIIKKQKEIIKKLIERKQAQIRKVYPGLSCFKEGVRQIPVESVPGIRETGWKPLGKEKGKELKDPDQLYTTLKNLLAQIKSHPSAWPFMEPVKKSEAPDYYEVIRFPIDLKTMTERLRSRYYVTRKLFVADLQRVIANCREYNPPDSEYCRCASALEKFFYFKLKEGGLIDK [KAT2A]”, the “solubility in G1/S (log2)” value with HeLa Kyoto [1] came to 0.0904. Also, in the data set on HeLa Kyoto [2], the “solubility change mitosis (log2)” value is -0.058.

Turning to “MTDPFCVGGRRLPGSSKSGPGKDGSRKEVRLPMLHDPPKMGMPVVRGGQTVPGQAPLCFDPGSPASDKTEGKKKGRPKAENQALRDIPLSLMNDWKDEFKAHSRVKCPNSGCWLEFPSIYGLKYHYQRCQGGAISDRLAFPCPFCEAAFTSKTQLEKHRIWNHMDRPLPASKPGPISRPVTISRPVGVSKPIGVSKPVTIGKPVGVSKPIGISKPVSVGRPMPVTKAIPVTRPVPVTKPVTVSRPMPVTKAMPVTKPITVTKSVPVTKPVPVTKPITVTKLVTVTKPVPVTKPVTVSRPIVVSKPVTVSRPIAISRHTPPCKMVLLTRSENKAPRATGRNSGKKRAADSLDTCPIPPKQARPENGEYGPSSMGQSSAFQLSADTSSGSLSPGSRPSGGMEALKAAGPASPPEEDPERTKHRRKQKTPKKFTGEQPSISGTFGLKGLVKAEDKARVHRSKKQEGPGPEDARKKVPAAPITVSKEAPAPVAHPAPGGPEEQWQRAIHERGEAVCPTCNVVTRKTLVGLKKHMEVCQKLQDALKCQHCRKQFKSKAGLNYHTMAEHSAKPSDAEASEGGEQEERERLRKVLKQMGRLRCPQEGCGAAFSSLMGYQYHQRRCGKPPCEVDSPSFPCTHCGKTYRSKAGHDYHVRSEHTAPPPEEPTDKSPEAEDPLGVERTPSGRVRRTSAQVAVFHLQEIAEDELARDWTKRRMKDDLVPETARLNYTRPGLPTLNPQLLEAWKNEVKEKGHVNCPNDCCEAIYSSVSGLKAHLASCSKGAHLAGKYRCLLCPKEFSSESGVKYHILKTHAENWFRTSADPPPKHRSQDSLVPKKEKKKNLAGGKKRGRKPKERTPEEPVAKLPPRRDDWPPGCRDKGARGSTGRKVGVSKAPEK [ZNF512B]”, in the data set with HeLa Kyoto [1], the “solubility in G1/S (log2)” value was -0.767. Besides, in the data set with HeLa Kyoto [2], the “solubility change mitosis (log2)” value was 0.776.

Consider “MSELSDEASEPELLNRSLSMWHGLGTQVSGEELDVPLDLHTAASIGQYEVVKECVQRRELDLNKKNGGGWTPLMYASYIGHDTIVHLLLEAGVSVNVPTPEGQTPLMLASSCGNESIAYFLLQQGAELEMKDIQGWTALFHCTSAGHQHMVRFLLDSGANANVREPICGFTPLMEAAAAGHEIIVQYFLNHGVKVDARDHSGATARMLAKQYGHMKIVALMDTYSPSLPKSLYRSPEKYEDLSSSDESCPAPQRQRPCRKKGVSIHEGPRALARITGIGLGGRAPRPRYEQAPPRGYVTFNSSGENPLEEEGLCCRDVTSPINERDVESSSSSSSREEHAFCANLGPVQSSSSSEGLARAQGLSSEASVESNEDSDHACKSSARKQAKSYMKTKNPDSQWPPRAATDREGFLAESSPQTQRAPYSGPQDLAALLEQIGCLKYLQVFEEQDVDLRIFLTLTESDLKEIGITLFGPKRKMTSAIARWHSSARPPGDALELAYADRLEAEMQELAIQLHKRCEEVEATRGQVCQEQELRAVVESCLLEQDRAREDLQARLRETWALARDAALVLDQLRACQAELSSRVRQDQPPGAATLGLAVPPADSKGWQASLQAMSLPELSGALEDRVREMGQALCLVTQSLEKLQVLNGKKWRET [ANKS3]”, for which, in the data set with HeLa Kyoto [1], the “solubility in G1/S (log2)” value is -0.0739. For the same substance, the “solubility change mitosis (log2)” value with HeLa Kyoto [2] turned out to be 0.0304.

For “MTEKAPEPHVEEDDDDELDSKLNYKPPPQKSLKELQEMDKDDESLIKYKKTLLGDGPVVTDPKAPNVVVTRLTLVCESAPGPITMDLTGDLEALKKETIVLKEGSEYRVKIHFKVNRDIVSGLKYVQHTYRTGVKVDKATFMVGSYGPRPEEYEFLTPVEEAPKGMLARGTYHNKSFFTDDDKQDHLSWEWNLSIKKEWTE [ARHGDIB]”, the “solubility in G1/S (log2)” value with HeLa Kyoto [1] worked out at 0.0837. For the same substance, the “solubility change mitosis (log2)” value with HeLa Kyoto [2] is -0.0572.

On to CHD1, for which the “solubility in G1/S (log2)” value in the data set on HeLa Kyoto [1] was -2.28. The “solubility change mitosis (log2)” value in the data set on HeLa Kyoto [2] stood at 0.383.

The values are drawn from the supplement of paper PMC5998384.
